Measurements reported in patent publication US20170304444A1 (Dana-Farber, published 2017).
Changes are numbered by the printed parent chain.

T1: glucocorticoid-induced tumor necrosis factor receptor (GITR) (human, UniProt Q9Y5U5 26-241)
T1 chain: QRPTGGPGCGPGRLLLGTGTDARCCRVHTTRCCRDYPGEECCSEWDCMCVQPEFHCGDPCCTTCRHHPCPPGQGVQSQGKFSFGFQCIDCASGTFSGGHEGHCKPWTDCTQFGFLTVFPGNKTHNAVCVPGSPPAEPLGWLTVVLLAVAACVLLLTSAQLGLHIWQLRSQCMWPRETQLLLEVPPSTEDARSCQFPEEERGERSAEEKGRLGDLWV

T2: glucocorticoid-induced tumor necrosis factor receptor (GITR) (human, UniProt Q9Y5U5 26-241)
T2 construct: whole, on cells; also called GITR expressing 293T cells
T2 sequence (looked up): T1 chain

B1: mAb #11-126 (antibody, V domains shown)
VH: EVQLVESGAEVKKPGASVKVSCKASGYTFTGYYMHWVRQAPGQGLEWLGWVNPHSGGTNYAQKFQGRVTMTRDTSISTAYMELSRLRSDDTAVYYCARETDISANYHFDYWGQGTLVTVSS
VL: QSALTQPASVSGSPGQSITISCTGTSSDVGSYNAVSWYQHHPGKAPKLMIYEVSKRPSGVSNRFSGSKSGNTASLTISGLRAEDEADYYCATWDDSLKGPVFGGGTKLTVLG
B2: mAb #13-169 (antibody, V domains shown)
VH: EVQLVQSGAEVKRPGASLKVSCKASGYTFTSHYIHWVRQAPGQGLEWMGWINTGNGDTRYSQRFQGRVTVTRDTSASTVYMELSSLRSEDTAVYYCARESSSSWFVAFDVWGQGTTVTVSS
VL: QPVLTQPPSVSLAPGQTARITCSEKNIRSKRVHWYQQKPGQAPVLVMYSDNGRRSGIPDRFSGSNSGNTATLTITRVEAGDEGDFYCQVWDPITDQVVFGGGTKLTVLG
B3: mAb #7-192 (antibody, V domains shown)
VH: EVQLVESGAEVKKPGASVKVSCKTSGYTFTDHYIHWVRQAPGQGLEWMGWINPSSGGTEYAQKFQGRVTMTRDTPISTAYMDLSGLRSDDTAVYYCARETIGGWNALDVWGQGTLVTVSS
VL: MPVLTQPPSVSVAPGQTARITCGGHKIGTKSVHWYQQKPGQAPVLVVYDDRDRPSGIPERFSGSNSGGTATLTISRVEAGDEADYYCQVWDSNSDHVVFGGGTKLTVLS
B4: mAb #5-139 (antibody, V domains shown)
VH: B3 VH with E6Q, L115T
VL: QSVLTQPPSASGSPGQRVTMSCSGSSSTIGRHSVNWYQQLPGTAPKLLIYANNQRPSGVPGRFSASKSDTSASLAISGLRSEDEANYYCAAWDDSLSGVLFGGGTKVTVLG
B5: mAb #17-60 (antibody, V domains shown)
VH: B3 VH
VL: QPVLTQPPSASGTPGQRVTISCSGSSSNIGINTVNWYQQLPRTPPKLLIYTNNQRPSGVPDRFSGSKSDTSASLAISGLQSEDEADYYCAAWDDTLNGPLFGGGTKVTVLG
B6: mAb #1-81 (antibody, V domains shown)
VH: B3 VH
VL: B5 VL
notes: Found as scFv by phage display
B7: mAb #15-68 (antibody, V domains shown)
VH: EVQLVQSGAEVKKPGASVNVSCKASGYTFTGYYMHWVRQAPGQGLEWMGWINPNSGGTNYAQKFQGRVTVTTDTSNSTAYMELNRLKSDDTAVYYCAREGSGDLDSLYMDVWGKGTMVTVSS
VL: SYELTQPPSVSVAPGQTARITCGANNIGSKSVHWYQQKPGQAPVLVVYDDSDRPSGIPERFSGSNSGNTATLTITRVEAGDEADYYCQLWDGGSDVVFGGGTKLTVLG
B8: mAb 3-167 (antibody, V domains shown)
VH: EVQLVQSGSELKKPGASVKVSCKASGYTFTGYYMHWVRQAPGQGLEWMGWINPNSGGTNYAQKFQGRVTVTTDTSTSTAYMELRSLRSDDTAVYYCAREGVHSDAFDVWGQGTTVTVSS
VL: ETTLTQSPATLSVSPGERATLSCRASQSVYTNLAWYQQKPGQAPSLLIYGASSRATGIPDRFSGSGSGTDFTLTISRLEPEDFAVYYCQQYGSSHFTFGPGTKVDIK
B9: mAb #12-46 (antibody, V domains shown)
VH: EVQLVQSGAEVKKPGASVKVSCKASGYTFTGYYMHWVRQAPGQGLEWMGWINPKTGDTNYAQKFQGRVALSRDTSFNTAYMDLSSLRSDDTAVYYCAREGLSTSSPLDYWGQGTLVTVSS
VL: QPGLTQPPSVSVAPGQSAKITCGENELATNIVHWYQQKPGQAPVLVIYHDNDRPSGIPERFSGSNAGNTATLTISRVEAGDEADFYCQLWDSASDQVVFGGGTTLTVLG
B10: mAb #14-182 (antibody, V domains shown)
VH: QVQLVQSGAEVKQPGSSVKVSCKASGYTFTGYYMHWVRQAPGEGLEWLGWINPHSGGTNYAQKFQGRVTITADKSTSTAYMELSSLRSEDTAVYYCAREIVVVTAPAAAAMDVWGQGTLVTVSS
VL: QSVLTQPPSASGSPGQSVTISCTGSSSDVAIYDRVSWYQQPPGTAPKLILYDVHDRPSGVPDRFSGSKSGNTASLTISGLQAEDEADYYCSSYTTSGTFVFGSGTKVTVLG
B11: mAb #10-116 (antibody, V domains shown)
VH: EVQLVQSGADVKKPGASVKVSCKASGYTFTGYYIHWVRQAPGQGLEWMGWINPNSGGTNYAQKFQGRVTMTRDTSISTAYMELSRLRSDDTAVYFCVREVKDYYYYMDVWGRGTTVTVSS
VL: NFMLTQPHSVSESPGKTVTISCTRSSGSIASNSVQWYLQRPGSAPTTLIFDNKQRPSGVPDRFSGSIDSSSNSASLSISGLTTEDEADYFCQSYDDSEQVVFGGGTKLTVLS

Legend:
[1] = biological target: T1, glucocorticoid-induced tumor necrosis …; experiment: BLI
[2] = biological target: T2, glucocorticoid-induced tumor necrosis …; experiment: flow cytometry on GITR-expressing 293T cells, FITC anti-human Fc detection
[3] = biological target: T1, glucocorticoid-induced tumor necrosis …; experiment: flow cytometry, GITR-expressing 293T cells

| Binder | Kd [1] | binding result [2] | EC50 [3] |
| --- | --- | --- | --- |
| B1 | 2.8 nM | binds | 13 nM |
| B2 | 3.21 nM | binds | 47 nM |
| B3 | 3.13 nM | binds | 19.3 nM |
| B4 | 0.42 nM | binds | 16.8 nM |
| B5 | 1.14 nM | – | 15.1 nM |
| B6 | 1.66 nM | binds | 22.4 nM |
| B7 | 3.81 nM | – | 26.5 nM |
| B8 | 0.855 nM | binds | 28.2 nM |
| B9 | 5.07 nM | binds | 72.4 nM |
| B10 | 1.82 nM | binds | 20.5 nM |
| B11 | 4.77 nM | binds | 28.3 nM |
